This is an account of results in US20220186239A1 (NINGBO UNIVERSITY, published 2022).

The target of the assay is T1, AD-T (UniProt P03070 87-708).
T1 construct: Commercial Y2H control prey; also called control prey
Kind of assay: yeast two-hybrid in Y2H Gold; growth on QDO and colour on QDO/X/A.

B1: BD-Lam (other)
chain: MKLLSSIEQACDICRLKKLKCSKEKPKCAKCLKNNWECRYSPKTKRSPLTRAHLTEVESRLERLEQLFLLIFPREDLDMILKMDSLQDIKALLTGLFVQDNVNKDAVTDRLASVETDMPLTLRQHRISATSSSEESSNKGQRQLTVSSEEVVSREVSGIKAAYEAELGDARKTLDSVAKERARLQLELSKVREEFKELKARNTKKEGDLIAAQARLKDLEALLNSKEAALSTALSEKRTLEGELHDLRGQVAKLEAALGEAKKQLQDEMLRRVDAENRLQTMKEELDFQKNIYSEELRETKRRHETRLVEID
notes: Commercial Y2H negative control bait; also called negative control bait
Regarding B1, the binding result is “no binding”.
